Laboratory results published in patent US10709762B2, “Use of M-CSF for preventing or treating myeloid cytopenia and related complications” (priority 2013, dated 2020).

Tested on: PU.1 in HSC of PU.1-GFP reporter mice
Test: PU.1-GFP reporter activation in HSC after in vivo injection (FACS)
Procedure: CD45.1 and C57Bl/6 mice were obtained from Charles River. PU.1-GFP^31 M-CSFR^−/−27 and PU.1^fl/fl 32 mice have been described. Age- and sex-matched CD45.1 recipients that were reconstituted as described^3 with CD45.2 foetal liver from wt or M-CSFR^−/− embryos^27 and PU.1^fl/fl or PU.1^fl/fl::MxCre bone marrow, were used to isolate CD150+CD34− KSLF HSC not earlier than 8 weeks after reconstitution. For in vivo injections the 10 μg/mouse M-CSF, 5 mg/kg LPS (055:B5 E. coli) or sorted cells were injected in 100 μl of PBS into the retro-orbital sinus. For HSC transplantation 400 CD150+CD34− KSLF HSC were sorted from CD45.2 mice and mixed with 100.000 Lin^+ Sca^− CD45.1 carrier cells prior to injection into sub-lethally irradiated (4.5 Gy) CD45.1 recipient mice. For competitive transplantations, 1300 CD150+, CD34-KSLF HSC were isolated 16 h after control or 10 μg M-CSF injection from actin-GFP CD45.2 mice^33, mixed with equal numbers of CD45.2 competitor HSC and injected with 300.000 Lin^+ Sca^− RC-lysed CD45.1 carrier cells into sub-lethally irradiated (4.5 Gy) CD45.1 recipients. Contribution to platelets, CD19+ B-cells and CD11b+ myeloid cells was analysed after 4 and 6 weeks in the blood from mice with at least 5% GFP+ donor cells. For PU.1 deletion PU.1^fl/fl or PU.1^fl/fl::MxCre reconstituted mice were intra-peritoneally injected with 5 μg/g Polyinosinic:polycytidylic acid 7 and 9 days prior to control (PBS) or 10 μg M-CSF injection. All mouse experiments were performed under specific pathogen-free conditions in accordance with institutional guidelines.
For FACS sorting and analysis we used described staining protocols^3 and published stem and progenitor cell definitions^34, FACSCANTO™ BD™ LSRII and FACSARIA™ III equipment and DIVA™ software (BECTON-DICKINSON), analysing only populations with at least 200 events. For HSC analysis we used antibodies anti-CD34-FITC (clone RAM34, BD BIOSCIENCES), anti-CD135-PE (clone A2F10.1, BD BIOSCIENCES), anti-CD150-Pe-Cy7 (clone TC15-12F12.2, BIOLEGEND), anti-CD117-APC H7 (clone 2B8, BD BIOSCIENCES), anti-Sca-1-Pe-Cy5 (clone D7, BIOLEGEND), anti-CD48-APC (clone HM48-1, BIOLEGEND). Diverging from this or in addition we used antibodies anti-CD34 Alexa 700 (clone RAM34, BD BIOSCIENCES), anti-CD16/32 PE (clone 2.4G2, BD BIOSCIENCES), anti-CD11b PE-CF594 (clone M1/70, BD BIOSCIENCES), anti-CD19PE-Cy7 (clone 1D3, BD biosciences), anti CD45.2 APC (clone 104, BD BIOSCIENCES) and anti CD45.1 Pacific Blue (clone A20, BD BIOSCIENCES) for progenitor and blood cell analysis. LIVE/DEAD Fixable Violet Dead cell dye (Invitrogen) was used as viability marker.

B1: M-CSF: recombinant murine macrophage colony stimulating factor from PeproTech, used in Example 1 (protein, UniProt P07141 33-552, looked up)
Macrophage colony-stimulating …: KEVSEHCSHMIGNGHLKVLQQLIDSQMETSCQIAFEFVDQEQLDDPVCYLKKAFFLVQDIIDETMRFKDNTPNANATERLQELSNNLNSCFTKDYEEQNKACVRTFHETPLQLLEKIKNFFNETKNLLEKDWNIFTKNCNNSFAKCSSRDVVTKPDCNCLYPKATPSSDPASASPHQPPAPSMAPLAGLAWDDSQRTEGSSLLPSELPLRIEDPGSAKQRPPRSTCQTLESTEQPNHGDRLTEDSQPHPSAGGPVPGVEDILESSLGTNWVLEEASGEASEGFLTQEAKFSPSTPVGGSIQAETDRPRALSASPFPKSTEDQKPVDITDRPLTEVNPMRPIGQTQNNTPEKTDGTSTLREDHQEPGSPHIATPNPQRVSNSATPVAQLLLPKSHSWGIVLPLGELEGKRSTRDRRSPAELEGGSASEGAARPVARFNSIPLTDTGHVEQHEGSSDPQIPESVFHLLVPGIILVLLTVGGLLFYKWKWRSHRDPQTLDSSVGRPEDSSLTQDEDRQVELPV
16 h after injection
  PU.1 activation in CD150hi HSC compared with total HSC: activated PU.1 to a similar extent
HSC after M-CSF injection
  change in M-CSFR or MafB expression: no significant change
PU.1-GFP reporter mice, direct intravenous injection, after 16 h
  PU.1 activation in HSC: significantly increased PU.1 activation
In GFP-positive or -negative HSC
  change in the proportion of CD150hi HSC: no change
